Laboratory results reported in patent US20230134580A1.

Legend:
[1] = target: human TIGIT (T cell immunoreceptor with Ig and ITIM domains), expressed on cells (human) (UniProt Q495A1); assay: flow cytometry (CytoFlex), whole cell binding to cells expressing human TIGIT, MFI of AlexaFlour 488; one representative of three experiments
[2] = target: human TIGIT (T cell immunoreceptor with Ig and ITIM domains), expressed on cells (human) (UniProt Q495A1); assay: cell-based or functional assay
[3] = target: human TIGIT (T cell immunoreceptor with Ig and ITIM domains), expressed on cells (human) (UniProt Q495A1); assay: whole cell binding assays, n=3 (FIG. 10A)
[4] = target: recombinant cynomolgus TIGIT (cynomolgus monkey); assay: ELISA on recombinant cyno-TIGIT
[5] = target: recombinant human TIGIT extracellular domain (ECD) (human) (UniProt Q495A1); assay: ELISA on recombinant human TIGIT ECD
recombinant human TIGIT extracellular domain (ECD) (human), sequence (Q495A1 22-138 limits assumed): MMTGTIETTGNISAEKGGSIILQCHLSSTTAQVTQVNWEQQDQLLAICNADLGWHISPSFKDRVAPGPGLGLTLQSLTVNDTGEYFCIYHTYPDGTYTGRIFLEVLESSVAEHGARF

human TIGIT (T cell immunoreceptor with Ig and ITIM domains), expressed on cells (human), sequence (Q495A1 22-244 limits assumed): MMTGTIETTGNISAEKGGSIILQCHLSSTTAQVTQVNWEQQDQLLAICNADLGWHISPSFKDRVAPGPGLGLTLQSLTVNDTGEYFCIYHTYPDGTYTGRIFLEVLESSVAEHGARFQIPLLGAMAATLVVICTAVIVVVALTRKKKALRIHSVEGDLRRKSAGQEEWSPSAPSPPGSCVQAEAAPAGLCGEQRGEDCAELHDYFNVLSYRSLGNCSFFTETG

Question: Which EC50 (read off the curve) [1] does the source give for “Reference Ab 2 (same amino acid sequences as Tiragolumab, U.S. 2017/0088613 A1) (antibody)” here?
Answer: 0.5 nM

Question: And the EC50, NFAT luciferase reporter assay (n=3) [2]?
Answer: 0.72 nM

Question: What about the EC50 [3] of the same substance?
Answer: 0.61 nM

Question: And the EC50 (read off the curve) [4]?
Answer: 0.1 µg/mL

Question: What about the EC50 (read off the curve) [5] of the same substance?
Answer: 0.1 µg/mL
